{
  "source": "paper PMC2701625",
  "about": "(Biochemistry, 2009)",
  "molecular_target": "the molecule itself",
  "assay": "cross-linking",
  "data": [
    {"protein": "GST-hHsp90-N520 (GST tagged human hsp90β truncation, residues 520-724) (domain or fragment) not shown", "values": [
      {"measurement": "stoichiometry N", "value": 4}
    ]}
  ]
}
